Test results published in publication PMC10786891, “Massively parallel profiling of RNA-targeting CRISPR-Cas13d”.
Changes are numbered by the printed parent chain. Names may count otherwise.

T1: EsCas13d, nuclease-dead (Eubacterium siraeum, UniProt B0MS50, R295A;H300A;R849A;H854A)
T1 sequence: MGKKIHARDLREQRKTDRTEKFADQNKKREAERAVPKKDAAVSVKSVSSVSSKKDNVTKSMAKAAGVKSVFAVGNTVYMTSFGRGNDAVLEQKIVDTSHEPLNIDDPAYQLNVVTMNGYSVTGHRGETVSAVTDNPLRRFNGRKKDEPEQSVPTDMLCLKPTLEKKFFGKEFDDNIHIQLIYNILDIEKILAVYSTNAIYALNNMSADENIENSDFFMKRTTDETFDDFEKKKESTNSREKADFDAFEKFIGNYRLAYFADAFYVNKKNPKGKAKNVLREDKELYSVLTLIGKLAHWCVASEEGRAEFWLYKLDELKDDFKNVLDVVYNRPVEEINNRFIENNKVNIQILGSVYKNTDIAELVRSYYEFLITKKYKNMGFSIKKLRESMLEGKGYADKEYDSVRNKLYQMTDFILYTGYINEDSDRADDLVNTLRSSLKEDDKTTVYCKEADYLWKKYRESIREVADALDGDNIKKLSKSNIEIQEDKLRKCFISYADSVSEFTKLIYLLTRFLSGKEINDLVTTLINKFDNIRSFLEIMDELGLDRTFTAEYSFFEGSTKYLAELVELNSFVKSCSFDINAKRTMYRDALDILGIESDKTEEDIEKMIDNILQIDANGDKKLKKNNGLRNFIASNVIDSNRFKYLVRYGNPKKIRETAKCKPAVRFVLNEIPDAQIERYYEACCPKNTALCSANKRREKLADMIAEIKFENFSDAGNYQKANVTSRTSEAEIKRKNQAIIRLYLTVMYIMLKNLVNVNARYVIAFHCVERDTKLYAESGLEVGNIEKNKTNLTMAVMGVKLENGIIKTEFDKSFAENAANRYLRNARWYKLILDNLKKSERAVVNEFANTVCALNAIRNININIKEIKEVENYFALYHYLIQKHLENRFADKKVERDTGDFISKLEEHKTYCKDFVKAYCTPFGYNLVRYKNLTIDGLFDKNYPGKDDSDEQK

B1: target 1 insA 3' of 11,insA 3' of 6 (mixed)
RNA 1: CACCCGUGCAAAAAUGCAGGGGUCUAAAACUGAGCGGAUAACCUCUCUAUGG
RNA 2: GGGAAUGGAUCCACAUCUACGAAUUCGUACCAUAGAGAGGUAUAUCCAGCUCACCGAGAUCGGAAGAGCACACGU
B2: target 1 insU 3' of 14,insA 3' of 6 (mixed)
RNA 1: B1 RNA 1
RNA 2: B1 RNA 2 with G39U, U41G, A42U
B3: target 1 insG 3' of 7,insU 3' of 7 (mixed)
RNA 1: B1 RNA 1
RNA 2: B1 RNA 2 with A42U, U43A, A44U, U45C, C46G, C47U, A48C
B4: target 1 insA 3' of 13,insC 3' of 13 (mixed)
RNA 1: B1 RNA 1
RNA 2: B1 RNA 2 with G40A, U41C, A42G, A44U, U45A, C46U, A48C
B5: target 1 C2G,C21U (mixed)
RNA 1: B1 RNA 1
RNA 2: GGGAAUGGAUCCACAUCUACGAAUUCGUACUAUAGAGAGGUUAUCCGCUGACCGAGAUCGGAAGAGCACACGU
B6: target 1 U19A,C22U (mixed)
RNA 1: B1 RNA 1
RNA 2: B5 RNA 2 with C30U, U31C, U33A, G50C
B7: target 1 insG 3' of 22,insG 3' of 16 (mixed)
RNA 1: B1 RNA 1
RNA 2: GGGAAUGGAUCCACAUCUACGAAUUCGUACGCAUAGAGGAGGUUAUCCGCUCACCGAGAUCGGAAGAGCACACGU
B8: target 1 insA 3' of 12,insG 3' of 1 (mixed)
RNA 1: B1 RNA 1
RNA 2: B1 RNA 2 with U41A, A42U, A48G, G49C, C50U, U51C, C52A, A53G
B9: target 1 U3A,A14C (mixed)
RNA 1: B1 RNA 1
RNA 2: B5 RNA 2 with U31C, A38C, U49A, G50C
B10: target 1 A9U,A18U (mixed)
RNA 1: B1 RNA 1
RNA 2: B5 RNA 2 with U31C, A34U, A43U, G50C
B11: target 1 insG 3' of 22,insA 3' of 10 (mixed)
RNA 1: B1 RNA 1
RNA 2: B7 RNA 2 with G39A, A40G, G42U, U44A
B12: target 1 U3G,G13A (mixed)
RNA 1: B1 RNA 1
RNA 2: B5 RNA 2 with U31C, G39A, U49G, G50C
B13: target 1 U11C,U19C (mixed)
RNA 1: B1 RNA 1
RNA 2: B5 RNA 2 with U31C, U33C, U41C, G50C
B14: target 1 A18C,C22U (mixed)
RNA 1: B1 RNA 1
RNA 2: B5 RNA 2 with C30U, U31C, A34C, G50C
B15: target 1 insC 3' of 22,insG 3' of 22 (mixed)
RNA 1: B1 RNA 1
RNA 2: B7 RNA 2 with G31C, C32G, A33C, U34A, A35U, G36A, A37G, G38A
B16: target 1 insG 3' of 22,insA 3' of 22 (mixed)
RNA 1: B1 RNA 1
RNA 2: B7 RNA 2 with C32A, A33C, U34A, A35U, G36A, A37G, G38A
B17: target 1 G5C,A20U (mixed)
RNA 1: B1 RNA 1
RNA 2: B5 RNA 2 with U31C, A32U, G47C, G50C
B18: target 1 insU 3' of 15,insU 3' of 4 (mixed)
RNA 1: B1 RNA 1
RNA 2: B1 RNA 2 with A38U, G39A, U41G, A42U, A48G, G49C, C50U
B19: target 1 insU 3' of 13,insA 3' of 4 (mixed)
RNA 1: B1 RNA 1
RNA 2: B1 RNA 2 with G40U, U41G, A42U, A48G, G49C, C50A
B20: target 1 insC 3' of 15,insC 3' of 13 (mixed)
RNA 1: B1 RNA 1
RNA 2: B1 RNA 2 with A38C, G39A, U41C, A42G, A44U, U45A, C46U, A48C
B21: target 1 insG 3' of 10,insA 3' of 5 (mixed)
RNA 1: B1 RNA 1
RNA 2: B1 RNA 2 with A42U, U43G, A48G, G49A
B22: target 1 insU 3' of 6,insG 3' of 2 (mixed)
RNA 1: B1 RNA 1
RNA 2: GGGAAUGGAUCCACAUCUACGAAUUCGUACCAUAGAGAGGUUAUCCUGCUCGACCGAGAUCGGAAGAGCACACGU
B23: target 1 C2A,C22G (mixed)
RNA 1: B1 RNA 1
RNA 2: B5 RNA 2 with C30G, U31C, G50A
B24: target 1 insA 3' of 12,insA 3' of 2 (mixed)
RNA 1: B1 RNA 1
RNA 2: B22 RNA 2 with U41A, A43U, U44A, C45U, U47C, G52A
B25: target 1 insU 3' of 18,insU 3' of 14 (mixed)
RNA 1: B1 RNA 1
RNA 2: B7 RNA 2 with G31C, C32A, A33U, U34A, A35U, G39A, A40U
B26: target 1 insC 3' of 5,insU 3' of 2 (mixed)
RNA 1: B1 RNA 1
RNA 2: B22 RNA 2 with U47G, G48C, G52U
B27: target 1 insC 3' of 18,insG 3' of 8 (mixed)
RNA 1: B1 RNA 1
RNA 2: B1 RNA 2 with G35C, A36G, G37A, A38G, G39A, U41G, A42U, C46G, A48C
B28: target 1 C6A,A14G (mixed)
RNA 1: B1 RNA 1
RNA 2: B5 RNA 2 with U31C, A38G, C46A, G50C
B29: target 1 insU 3' of 4,insG 3' of 1 (mixed)
RNA 1: B1 RNA 1
RNA 2: B22 RNA 2 with U47G, G48C, C49U, G52A, A53G
B30: target 1 C2G,G12A (mixed)
RNA 1: B1 RNA 1
RNA 2: B5 RNA 2 with U31C, G40A
B31: target 1 insU 3' of 9,insA 3' of 5 (mixed)
RNA 1: B1 RNA 1
RNA 2: B1 RNA 2 with A42U, U43A, A44U, A48G, G49A
B32: target 1 insA 3' of 3,insA 3' of 2 (mixed)
RNA 1: B1 RNA 1
RNA 2: B22 RNA 2 with U47G, G48C, C49U, U50A, G52A
B33: target 1 insA 3' of 12,insC 3' of 1 (mixed)
RNA 1: B1 RNA 1
RNA 2: B22 RNA 2 with U41A, A43U, U44A, C45U, U47C, G52A, A53C

The binders below were run against T1, EsCas13d, nuclease-dead (assay: crRNA (strand 1, pre-loaded); Mg2+; 40 mM Tris-HCl pH 7.5, 150 mM NaCl, 6 mM MgCl2, 1 mM DTT, 0.1% Tween-20, 0.2 mg/ml BSA; 25 C; 10 min per concentration, then washed). Conditions: tags: His6-TwinStrep-SUMO cleaved; N-terminal SNAP kept (SNAP-Surface 488); label: 3' end held by stalled T7 RNA polymerase.

**Q.** For B1, which Kd is on record?
**A.** Its Kd is 13.2 ± 1 nM.

**Q.** B2 was tested. Which Kd did it give?
**A.** Its Kd is 80 ± 32 nM.

**Q.** With B3 as the binder, how does the Kd read?
**A.** Its Kd is 9.26 ± 0.34 nM.

**Q.** Which Kd does the source give for B4 here?
**A.** The Kd was 23 ± 5 nM.

**Q.** For B5, which Kd is on record?
**A.** The Kd was 11.7 ± 1.6 nM.

**Q.** For B6, which Kd is on record?
**A.** Its Kd is 70 ± 19 nM.

**Q.** With B7 as the binder, how does the Kd read?
**A.** The Kd was 57 ± 8 nM.

**Q.** With B8 as the binder, how does the Kd read?
**A.** Its Kd is 28.9 ± 3.1 nM.

**Q.** Which Kd does the source give for B9 here?
**A.** The Kd was 20.8 ± 1 nM.

**Q.** For B10, which Kd is on record?
**A.** The Kd was 44.9 ± 3.5 nM.

**Q.** Which Kd does the source give for B11 here?
**A.** Its Kd is 25 ± 1.5 nM.

**Q.** B12 was tested. Which Kd did it give?
**A.** The Kd was 5.4 ± 0.8 nM.

**Q.** For B13, which Kd is on record?
**A.** Its Kd is roughly 80 nM.

**Q.** How did the Kd turn out when B14 was run?
**A.** The Kd was 59 ± 7 nM.

**Q.** With B15 as the binder, how does the Kd read?
**A.** The Kd was 12.6 ± 0.6 nM.

**Q.** With B16 as the binder, how does the Kd read?
**A.** Its Kd is 30.8 ± 2.9 nM.

**Q.** For B17, which Kd is on record?
**A.** Its Kd is 63 ± 12 nM.

**Q.** B18 was tested. Which Kd did it give?
**A.** The Kd was 9.6 ± 0.6 nM.

**Q.** For B19, which Kd is on record?
**A.** The Kd was 13.5 ± 1.5 nM.

**Q.** Which Kd does the source give for B20 here?
**A.** Its Kd is 34 ± 4 nM.

**Q.** Which Kd does the source give for B21 here?
**A.** Its Kd is 30.5 ± 3.4 nM.

**Q.** B22 was tested. Which Kd did it give?
**A.** Its Kd is 15.3 ± 1 nM.

**Q.** Which Kd does the source give for B23 here?
**A.** The Kd was roughly 80 nM.

**Q.** For B24, which Kd is on record?
**A.** Its Kd is 34.2 ± 3.1 nM.

**Q.** For B25, which Kd is on record?
**A.** The Kd was 73 ± 12 nM.

**Q.** B26 was tested. Which Kd did it give?
**A.** The Kd was 15.2 ± 0.6 nM.

**Q.** With B27 as the binder, how does the Kd read?
**A.** Its Kd is 53.4 ± 3.3 nM.

**Q.** For B28, which Kd is on record?
**A.** The Kd was 12.6 ± 0.9 nM.

**Q.** How did the Kd turn out when B29 was run?
**A.** The Kd was 6.8 ± 0.4 nM.

**Q.** For B30, which Kd is on record?
**A.** The Kd was 3.51 ± 0.18 nM.

**Q.** With B31 as the binder, how does the Kd read?
**A.** The Kd was 6.6 ± 0.8 nM.

**Q.** Which Kd does the source give for B32 here?
**A.** Its Kd is 7.1 ± 0.4 nM.

**Q.** How did the Kd turn out when B33 was run?
**A.** Its Kd is 27.4 ± 2.6 nM.
